{
  "source": "patent US20040071661A1",
  "target": "LCMV glycoprotein GP33-41 epitope presented by the histocompatibility molecules H-2D^b (LCMV virus; mouse (C57BL/6)) (UniProt P09991)",
  "assay": "cell-based or functional assay",
  "data": [
    {"sequence": "T receptor (TCR Vα2 Vβ8) specific for the GP33-41 epitope, on CD8 T lymphocytes of TCR-transgenic C57BL/6 mice", "values": [
      {"measurement": "% CD44^hi effector - memory, of CD8+ TCR Vα2 T cells, 7 days after injection of H293-341-LCMV.GP particle supernatant (control H293-341: 37.6)", "value": 63.9, "unit": "%"},
      {"measurement": "CD44^lo (naïve), percent of CD8+ TCR Vα2 T cells, 7 days after injection of H293-341-LCMV.GP particle supernatant (control H293-341: 57.6)", "value": 24.5, "unit": "%"}
    ]}
  ]
}
